From PMC4532613 (Molecular and biochemical parasitology, 2015)

Biological target: the molecule itself
Assay: SEC

B1: Ca^2+-binding mutant FCaBP^E151Q/E188Q, recombinant (natural protein)
chain: MGACGSKGSTSDKGLASDKDGKKAKDRKEAWERIRQAIPREKTAEAKQRRIELFKKFDKNETGKLCYDEVHSGCLEVLKLDEFTPRVRDITKRAFDKARALGSKLENKGSEDFVEFLEFRLMLCYIYDFFELTVMFDEIDASGNMLVDEEQLKRAVPKLEAWGAKVEDPAALFKELDKNGTGSVTFDQFAAWASAVKLDADGDPDNVPESA
  stoichiometry N: 2
